# Source: article PMC9482650, “Quantitative fragmentomics allow affinity mapping of interactomes” (Nature Communications, 2022)
# T1: CARD11, Q9BXL7
# T1 sequence (Q9BXL7 662-765, limits assumed, looked up): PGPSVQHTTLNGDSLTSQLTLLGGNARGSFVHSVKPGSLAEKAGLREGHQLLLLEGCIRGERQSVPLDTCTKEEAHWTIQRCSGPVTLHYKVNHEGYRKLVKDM
# T2: HTRA4, P83105
# T2 sequence (P83105 378-476, limits assumed, looked up): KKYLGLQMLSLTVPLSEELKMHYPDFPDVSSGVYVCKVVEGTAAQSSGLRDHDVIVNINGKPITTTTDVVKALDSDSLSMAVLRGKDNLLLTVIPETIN
# T3: FRMPD1, Q5SYB0
# T3 sequence (Q5SYB0 52-145, limits assumed, looked up): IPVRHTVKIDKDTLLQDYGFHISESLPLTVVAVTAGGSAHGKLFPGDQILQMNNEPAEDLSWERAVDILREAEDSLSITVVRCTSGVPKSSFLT
# T4: MPP6, Q9NZW5
# T4 sequence (Q9NZW5 125-219, limits assumed, looked up): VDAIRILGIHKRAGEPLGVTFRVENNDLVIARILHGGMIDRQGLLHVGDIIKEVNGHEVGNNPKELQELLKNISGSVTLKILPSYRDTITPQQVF
# T5: RHPN1, Q8TCX5
# T5 sequence (Q8TCX5 508-602, limits assumed, looked up): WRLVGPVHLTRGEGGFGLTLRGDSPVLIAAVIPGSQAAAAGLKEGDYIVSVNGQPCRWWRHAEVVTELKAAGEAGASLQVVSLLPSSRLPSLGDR
# T6: APBA1_2, Q02410
# T6 sequence (Q02410 742-832, limits assumed, looked up): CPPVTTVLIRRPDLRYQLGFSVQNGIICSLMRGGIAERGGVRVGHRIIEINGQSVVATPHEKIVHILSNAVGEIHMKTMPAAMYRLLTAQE
# T7: NHERF3_3, Q5T2W1
# T7 sequence (Q5T2W1 238-333, limits assumed, looked up): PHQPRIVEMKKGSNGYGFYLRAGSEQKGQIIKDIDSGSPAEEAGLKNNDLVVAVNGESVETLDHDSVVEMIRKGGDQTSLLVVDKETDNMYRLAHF
# T8: DVL3, Q92997
# T8 sequence (Q92997 244-331, limits assumed, looked up): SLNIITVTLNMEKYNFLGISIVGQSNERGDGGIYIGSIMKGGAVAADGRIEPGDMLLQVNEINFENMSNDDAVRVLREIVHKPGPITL
# T9: PDZD2_2, O15018
# T9 sequence (O15018 329-429, limits assumed, looked up): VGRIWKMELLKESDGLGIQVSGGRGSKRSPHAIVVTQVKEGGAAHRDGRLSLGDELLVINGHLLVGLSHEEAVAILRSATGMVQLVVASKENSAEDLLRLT
# T10: PDZD7_3, Q9H5P4
# T10 sequence (Q9H5P4 857-944, limits assumed, looked up): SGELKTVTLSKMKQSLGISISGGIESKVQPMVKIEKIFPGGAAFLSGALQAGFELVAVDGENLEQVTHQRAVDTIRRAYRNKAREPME
# T11: DLG3_3, Q92796
# T11 sequence (Q92796 374-475, limits assumed, looked up): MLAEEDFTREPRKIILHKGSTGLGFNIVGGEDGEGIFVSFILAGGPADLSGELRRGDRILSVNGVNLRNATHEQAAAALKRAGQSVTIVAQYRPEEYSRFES
# T12: NHERF3_4, Q5T2W1
# T12 sequence (Q5T2W1 373-468, limits assumed, looked up): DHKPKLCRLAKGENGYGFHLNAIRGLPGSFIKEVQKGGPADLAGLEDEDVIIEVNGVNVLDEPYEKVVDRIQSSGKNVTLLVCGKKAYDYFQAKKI
# Legend:
# Experiment in all cases: holdup assay
# Design in all cases: key: below the threshold = too weak to quantify, mostly under pKd 3.1 to 4
# LAP2, Q96RT1 = target: LAP2, Q96RT1
# Chain of LAP2, Q96RT1 (Q96RT1 other isoform, or with tags, fused parts or gaps): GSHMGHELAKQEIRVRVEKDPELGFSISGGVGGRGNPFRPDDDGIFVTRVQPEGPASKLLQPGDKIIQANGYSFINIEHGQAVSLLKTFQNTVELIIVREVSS
# PDZRN4_1, Q6ZMN7 = target: PDZRN4_1, Q6ZMN7
# Chain of PDZRN4_1, Q6ZMN7 (Q6ZMN7 213-318): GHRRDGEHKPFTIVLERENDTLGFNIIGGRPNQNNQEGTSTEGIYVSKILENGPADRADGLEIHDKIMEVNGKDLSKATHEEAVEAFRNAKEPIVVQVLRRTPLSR
# DLG2_2, Q15700 = target: DLG2_2, Q15700
# Chain of DLG2_2, Q15700 (Q15700 189-283): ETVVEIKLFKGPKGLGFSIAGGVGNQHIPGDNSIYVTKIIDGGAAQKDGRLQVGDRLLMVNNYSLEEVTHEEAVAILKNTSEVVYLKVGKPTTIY
# GRASP, Q7Z6J2 = target: GRASP, Q7Z6J2
# Chain of GRASP, Q7Z6J2 (Q7Z6J2 96-193): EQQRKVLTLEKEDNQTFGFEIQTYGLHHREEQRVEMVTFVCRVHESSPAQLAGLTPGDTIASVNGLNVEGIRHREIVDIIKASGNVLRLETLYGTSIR
# CARD11, Q9BXL7 = target: T1, CARD11, Q9BXL7
# IL16_4, Q14005 = target: IL16_4, Q14005
# Chain of IL16_4, Q14005 (Q14005 1229-1329): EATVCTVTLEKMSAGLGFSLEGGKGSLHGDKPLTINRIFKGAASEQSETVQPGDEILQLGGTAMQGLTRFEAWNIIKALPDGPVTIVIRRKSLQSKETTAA
# HTRA4, P83105 = target: T2, HTRA4, P83105
# FRMPD1, Q5SYB0 = target: T3, FRMPD1, Q5SYB0
# MPP6, Q9NZW5 = target: T4, MPP6, Q9NZW5
# RHPN1, Q8TCX5 = target: T5, RHPN1, Q8TCX5
# APBA1_2, Q02410 = target: T6, APBA1_2, Q02410
# Inadl_8, Q8NI35 = target: Inadl_8, Q8NI35
# Chain of Inadl_8, Q8NI35 (Q8NI35 1425-1530): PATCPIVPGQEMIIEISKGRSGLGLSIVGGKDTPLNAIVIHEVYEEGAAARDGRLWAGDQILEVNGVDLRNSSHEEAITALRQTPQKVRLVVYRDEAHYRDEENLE
# Inadl_9, Q8NI35 = target: Inadl_9, Q8NI35
# Chain of Inadl_9, Q8NI35 (Q8NI35 1530-1615): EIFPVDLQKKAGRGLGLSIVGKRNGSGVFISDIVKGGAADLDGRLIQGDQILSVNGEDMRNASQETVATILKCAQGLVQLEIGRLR
# MAGI2_3, Q86UL8 = target: MAGI2_3, Q86UL8
# Chain of MAGI2_3, Q86UL8 (Q86UL8 600-682): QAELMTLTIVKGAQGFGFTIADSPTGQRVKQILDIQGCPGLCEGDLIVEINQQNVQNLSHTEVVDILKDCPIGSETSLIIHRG
# NHERF3_3, Q5T2W1 = target: T7, NHERF3_3, Q5T2W1
# NHERF4_2, Q86UT5 = target: NHERF4_2, Q86UT5
# Chain of NHERF4_2, Q86UT5 (Q86UT5 220-308): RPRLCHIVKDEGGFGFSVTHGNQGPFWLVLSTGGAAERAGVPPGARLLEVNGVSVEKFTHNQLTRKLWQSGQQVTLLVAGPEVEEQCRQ
# DVL3, Q92997 = target: T8, DVL3, Q92997
# PDZD2_2, O15018 = target: T9, PDZD2_2, O15018
# Inadl_10, Q8NI35 = target: Inadl_10, Q8NI35
# Chain of Inadl_10, Q8NI35 (Q8NI35 1673-1763): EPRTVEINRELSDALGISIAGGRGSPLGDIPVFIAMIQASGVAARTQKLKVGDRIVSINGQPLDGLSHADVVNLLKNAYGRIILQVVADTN
# FRMPD4, Q14CM0 = target: FRMPD4, Q14CM0
# Chain of FRMPD4, Q14CM0 (Q14CM0 67-160): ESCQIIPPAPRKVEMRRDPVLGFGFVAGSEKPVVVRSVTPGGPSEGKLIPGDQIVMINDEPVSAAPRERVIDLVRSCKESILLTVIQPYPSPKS
# PDZD7_3, Q9H5P4 = target: T10, PDZD7_3, Q9H5P4
# HTRA2, O43464 = target: HTRA2, O43464
# Chain of HTRA2, O43464 (O43464 355-458): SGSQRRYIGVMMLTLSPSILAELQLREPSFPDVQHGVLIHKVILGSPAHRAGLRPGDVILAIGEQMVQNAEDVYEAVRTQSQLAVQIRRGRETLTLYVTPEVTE
# DLG3_3, Q92796 = target: T11, DLG3_3, Q92796
# NHERF3_4, Q5T2W1 = target: T12, NHERF3_4, Q5T2W1
# NHERF2_2, Q15599 = target: NHERF2_2, Q15599
# Chain of NHERF2_2, Q15599 (Q15599 142-238): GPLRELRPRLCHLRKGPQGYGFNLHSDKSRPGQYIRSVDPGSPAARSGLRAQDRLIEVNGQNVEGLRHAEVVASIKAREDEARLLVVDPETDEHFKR
# MAGI2_2, Q86UL8 = target: MAGI2_2, Q86UL8
# Chain of MAGI2_2, Q86UL8 (Q86UL8 410-522): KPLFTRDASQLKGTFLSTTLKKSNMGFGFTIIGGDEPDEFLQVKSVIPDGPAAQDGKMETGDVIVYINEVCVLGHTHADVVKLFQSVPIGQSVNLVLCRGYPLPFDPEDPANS
# [1] = plain residues with an end cap or a label only (N-terminal biotin on a linker: ahx)
# [2] = plain residues with an end cap or a label only (N-terminal biotin on a linker: ttds)
binder,measurement,setting,value
"AKPQPVDSWV [ARVCF, O00192]",pKd,"LAP2, Q96RT1; [1]",5.73
same,pKd,"PDZRN4_1, Q6ZMN7; [1]",3.63
same,pKd,"DLG2_2, Q15700; [1]",below the threshold
same,pKd,"GRASP, Q7Z6J2; [1]",below the threshold
same,pKd,"CARD11, Q9BXL7; [1]",below the threshold
same,pKd,"IL16_4, Q14005; [1]",below the threshold
same,pKd,"HTRA4, P83105; [1]",below the threshold
same,pKd,"FRMPD1, Q5SYB0; [1]",below the threshold
same,pKd,"MPP6, Q9NZW5; [1]",below the threshold
same,pKd,"RHPN1, Q8TCX5; [1]",3.8
same,pKd,"APBA1_2, Q02410; [1]",4.62
same,pKd,"Inadl_8, Q8NI35; [1]",3.87
same,pKd,"Inadl_9, Q8NI35; [1]",3.74
same,pKd,"MAGI2_3, Q86UL8; [1]",below the threshold
same,pKd,"NHERF3_3, Q5T2W1; [1]",below the threshold
same,pKd,"NHERF4_2, Q86UT5; [1]",below the threshold
same,pKd,"DVL3, Q92997; [1]",3.96
same,pKd,"PDZD2_2, O15018; [1]",5.95
same,pKd,"Inadl_10, Q8NI35; [1]",below the threshold
same,pKd,"FRMPD4, Q14CM0; [1]",below the threshold
same,pKd,"PDZD7_3, Q9H5P4; [1]",3.53
same,pKd,"HTRA2, O43464; [1]",3.68
same,pKd,"DLG3_3, Q92796; [1]",below the threshold
same,pKd,"NHERF3_4, Q5T2W1; [1]",below the threshold
same,pKd,"NHERF2_2, Q15599; [1]",below the threshold
same,pKd,"MAGI2_2, Q86UL8; [1]",below the threshold
"GRLLGLETNV [ARHGEF26, Q96DR7]",pKd,"LAP2, Q96RT1; [2]",4.41
same,pKd,"PDZRN4_1, Q6ZMN7; [2]",3.48
same,pKd,"DLG2_2, Q15700; [2]",4.88
same,pKd,"GRASP, Q7Z6J2; [2]",below the threshold
same,pKd,"CARD11, Q9BXL7; [2]",below the threshold
same,pKd,"IL16_4, Q14005; [2]",below the threshold
same,pKd,"HTRA4, P83105; [2]",below the threshold
same,pKd,"FRMPD1, Q5SYB0; [2]",below the threshold
same,pKd,"MPP6, Q9NZW5; [2]",below the threshold
same,pKd,"RHPN1, Q8TCX5; [2]",4.48
same,pKd,"APBA1_2, Q02410; [2]",4.23
same,pKd,"Inadl_8, Q8NI35; [2]",below the threshold
same,pKd,"Inadl_9, Q8NI35; [2]",below the threshold
same,pKd,"MAGI2_3, Q86UL8; [2]",3.9
same,pKd,"NHERF3_3, Q5T2W1; [2]",below the threshold
same,pKd,"NHERF4_2, Q86UT5; [2]",below the threshold
same,pKd,"DVL3, Q92997; [2]",below the threshold
same,pKd,"PDZD2_2, O15018; [2]",4.12
same,pKd,"Inadl_10, Q8NI35; [2]",below the threshold
same,pKd,"FRMPD4, Q14CM0; [2]",below the threshold
same,pKd,"PDZD7_3, Q9H5P4; [2]",4.11
same,pKd,"HTRA2, O43464; [2]",below the threshold
same,pKd,"DLG3_3, Q92796; [2]",4.23
same,pKd,"NHERF3_4, Q5T2W1; [2]",below the threshold
same,pKd,"NHERF2_2, Q15599; [2]",below the threshold
same,pKd,"MAGI2_2, Q86UL8; [2]",3.72
"QRPYRRESEI [KCNJ12, Q14500]",pKd,"LAP2, Q96RT1; [2]",below the threshold
same,pKd,"PDZRN4_1, Q6ZMN7; [2]",4.18
same,pKd,"DLG2_2, Q15700; [2]",3.96
same,pKd,"GRASP, Q7Z6J2; [2]",below the threshold
same,pKd,"CARD11, Q9BXL7; [2]",below the threshold
same,pKd,"IL16_4, Q14005; [2]",below the threshold
same,pKd,"HTRA4, P83105; [2]",below the threshold
same,pKd,"FRMPD1, Q5SYB0; [2]",below the threshold
same,pKd,"MPP6, Q9NZW5; [2]",below the threshold
same,pKd,"RHPN1, Q8TCX5; [2]",3.5
same,pKd,"APBA1_2, Q02410; [2]",below the threshold
same,pKd,"Inadl_8, Q8NI35; [2]",below the threshold
same,pKd,"Inadl_9, Q8NI35; [2]",below the threshold
same,pKd,"MAGI2_3, Q86UL8; [2]",below the threshold
same,pKd,"NHERF3_3, Q5T2W1; [2]",below the threshold
same,pKd,"NHERF4_2, Q86UT5; [2]",below the threshold
same,pKd,"DVL3, Q92997; [2]",below the threshold
same,pKd,"PDZD2_2, O15018; [2]",4.26
same,pKd,"Inadl_10, Q8NI35; [2]",below the threshold
same,pKd,"FRMPD4, Q14CM0; [2]",below the threshold
same,pKd,"PDZD7_3, Q9H5P4; [2]",4.57
same,pKd,"HTRA2, O43464; [2]",below the threshold
same,pKd,"DLG3_3, Q92796; [2]",4.32
same,pKd,"NHERF3_4, Q5T2W1; [2]",below the threshold
same,pKd,"NHERF2_2, Q15599; [2]",below the threshold
same,pKd,"MAGI2_2, Q86UL8; [2]",4.21
"NPDALPETLV [ARHGAP6, O43182]",pKd,"LAP2, Q96RT1; [2]",3.8
same,pKd,"PDZRN4_1, Q6ZMN7; [2]",4.11
same,pKd,"DLG2_2, Q15700; [2]",4.23
same,pKd,"GRASP, Q7Z6J2; [2]",below the threshold
same,pKd,"CARD11, Q9BXL7; [2]",below the threshold
same,pKd,"IL16_4, Q14005; [2]",below the threshold
same,pKd,"HTRA4, P83105; [2]",below the threshold
same,pKd,"FRMPD1, Q5SYB0; [2]",below the threshold
same,pKd,"MPP6, Q9NZW5; [2]",below the threshold
same,pKd,"RHPN1, Q8TCX5; [2]",4.61
same,pKd,"APBA1_2, Q02410; [2]",below the threshold
same,pKd,"Inadl_8, Q8NI35; [2]",below the threshold
same,pKd,"Inadl_9, Q8NI35; [2]",3.98
same,pKd,"MAGI2_3, Q86UL8; [2]",3.89
same,pKd,"NHERF3_3, Q5T2W1; [2]",below the threshold
same,pKd,"NHERF4_2, Q86UT5; [2]",below the threshold
same,pKd,"DVL3, Q92997; [2]",below the threshold
same,pKd,"PDZD2_2, O15018; [2]",4.12
same,pKd,"Inadl_10, Q8NI35; [2]",below the threshold
same,pKd,"FRMPD4, Q14CM0; [2]",below the threshold
same,pKd,"PDZD7_3, Q9H5P4; [2]",5.61
same,pKd,"HTRA2, O43464; [2]",below the threshold
same,pKd,"DLG3_3, Q92796; [2]",below the threshold
same,pKd,"NHERF3_4, Q5T2W1; [2]",below the threshold
same,pKd,"NHERF2_2, Q15599; [2]",below the threshold
same,pKd,"MAGI2_2, Q86UL8; [2]",4.1
